According to doi:10.1101/2021.07.09.451512:
Read-outs that look alike come from different tables or passages of the source.

Legend:
Experiment in all cases: fluorescence polarisation
[1] = biological target: fluorescein labelled AcrIIC4 (wild type, engineered C-terminal cysteine) (Haemophilus parainfluenzae (prophage))
[2] = biological target: fluorescein labelled AcrIIC4 (wild type, engineered C-terminal cysteine) (Haemophilus parainfluenzae (prophage)); remark: listed apart in the source
[3] = biological target: fluorescein labelled AcrIIC4 K56A (Haemophilus parainfluenzae (prophage))
[4] = biological target: fluorescein labelled AcrIIC4 R46A (Haemophilus parainfluenzae (prophage))
[5] = biological target: fluorescein labelled AcrIIC4 F49A (Haemophilus parainfluenzae (prophage))
[6] = biological target: fluorescein labelled AcrIIC4 (wild type, engineered C-terminal cysteine) (Haemophilus parainfluenzae (prophage)); remark: listed apart in the source

B1: Nme1Cas9 (N-terminal 6His-tag) (natural protein)
chain: MAAFKPNSINYILGLDIGIASVGWAMVEIDEEENPIRLIDLGVRVFERAEVPKTGDSLAMARRLARSVRRLTRRRAHRLLRTRRLLKREGVLQAANFDENGLIKSLPNTPWQLRAAALDRKLTPLEWSAVLLHLIKHRGYLSQRKNEGETADKELGALLKGVAGNAHALQTGDFRTPAELALNKFEKESGHIRNQRSDYSHTFSRKDLQAELILLFEKQKEFGNPHVSGGLKEGIETLLMTQRPALSGDAVQKMLGHCTFEPAEPKAAKNTYTAERFIWLTKLNNLRILEQGSERPLTDTERATLMDEPYRKSKLTYAQARKLLGLEDTAFFKGLRYGKDNAEASTLMEMKAYHAISRALEKEGLKDKKSPLNLSPELQDEIGTAFSLFKTDEDITGRLKDRIQPEILEALLKHISFDKFVQISLKALRRIVPLMEQGKRYDEACAEIYGDHYGKKNTEEKIYLPPIPADEIRNPVVLRALSQARKVINGVVRRYGSPARIHIETAREVGKSFKDRKEIEKRQEENRKDREKAAAKFREYFPNFVGEPKSKDILKLRLYEQQHGKCLYSGKEINLGRLNEKGYVEIDHALPFSRTWDDSFNNKVLVLGSENQNKGNQTPYEYFNGKDNSREWQEFKARVETSRFPRSKKQRILLQKFDEDGFKERNLNDTRYVNRFLCQFVADRMRLTGKGKKRVFASNGQITNLLRGFWGLRKVRAENDRHHALDAVVVACSTVAMQQKITRFVRYKEMNAFDGKTIDKETGEVLHQKTHFPQPWEFFAQEVMIRVFGKPDGKPEFEEADTLEKLRTLLAEKLSSRPEAVHEYVTPLFVSRAPNRKMSGQGHMETVKSAKRLDEGVSVLRVPLTQLKLKDLEKMVNREREPKLYEALKARLEAHKDDPAKAFAEPFYKYDKAGNRTQQVKAVRVEQVQKTGVWVRNHNGIADNATMVRVDVFEKGDKYYLVPIYSWQVAKGILPDRAVVQGKDEEDWQLIDDSFNFKFSLHPNDLVEVITKKARMFGYFASCHRGTGNINIRIHDLDHKIGKNGILEGIGVKTALSFQKYQIDELGKEIRPCRLKKRPPVR
[1]
  Kd: 7.1 nM
[2]
  Kd: 6.6 nM
[3]
  Kd: 1.4 nM
[4]
  Kd: > 2500 nM
[5]
  Kd: 15.3 nM
[6]
  Kd: 10.2 nM
